Measured values: US6919086B1, “Graminae pollen allergen mutants for specific immunotherapy, and production and use of the same” (Merck Patent Gesellschaft mit, priority 1997, dated 2005)
Like-named read-outs stand apart in the source and are kept apart here.

What was measured:
[1] = test system: Phl p 5b-reactive T cell clones (TCCs) from allergic patients; experiment: Proliferative reaction of Phl p 5b-reactive T cell clones ([3H]-thymidine incorporation); type: cell-based, human; settings: final concentration 0.3 μM
How it was run: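 T cell clones from grass-pollen-allergic patients, specific for regions A, B and C, were cultured with irradiated autologous APCs and recombinant Phl p 5b mutants in triplicate. After 56 h, [3H]-thymidine was added and counted after another 16 h. Stimulation index is cpm with antigen over cpm without, with ≥5 rated positive.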

[2] = target: IgE antibodies of the individual allergic patient serum II/17; experiment: EAST inhibition, individual serum II/17
[3] = test system: IgE antibodies of allergic patients; experiment: EAST inhibition test (IgE reactivity / allergenicity); type: binding, human; settings: for IC50: read-out: Inhibition value 50% (concentration of the inhibitor at 50% inhibition); for Allergenic potency (Prel) 25%: relative to native Phl p 5b at 25% inhibition; for Allergenic potency (Prel) 50%: relative to native Phl p 5b at 50% inhibition; for EAST inhibition curve / inhibitory effect (in words): serum pool Bor 18/100 (20 donors), FIG. 1; for Allergenicity from EAST inhibition curves (in words): serum pool We 6/97 and individual sera II3, II12, II17, FIGS. 2-5
How it was run: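 Plates coated with natural or recombinant Ph1 p 5 or Ph1 p 5b (1 μg/ml), BSA-blocked, incubated with allergic patient sera (pool of 10-30 donors or individual) plus soluble allergen mutants as inhibitors. Bound IgE detected by enzyme-coupled anti-IgE; inhibition curves referenced to purified natural Ph1 p 5b.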

[4] = test system: Phl p 5b-reactive T cell lines (TCLs) from allergic patients; experiment: Proliferative reaction of Phl p 5b-reactive oligoclonal T cell lines ([3H]-thymidine incorporation); type: cell-based, human; settings: secondary activator 0.3 μM; for Incorporation of [3H]-thymidine into TCL 5 17.4 (stimulation index class): primary stimulator r Phl p 5; for Incorporation of [3H]-thymidine into TCL 7 19.2 (stimulation index class) / Incorporation of [3H]-thymidine into TCL 8 20.1 (stimulation index class): primary stimulator r Phl p 5b
How it was run: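 T cell lines from grass-pollen-allergic patients were raised by repeated stimulation with Phl p 5b allergens. TCL blasts (2×10^4/ml) were cultured with irradiated autologous APCs (5×10^4/ml) and 10-20 μg antigen for 56 h, then given [3H]-thymidine for 16 h. Stimulation index is cpm with antigen over cpm without.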

[5] = target: IgE antibodies of the individual allergic patient serum II/12; experiment: EAST inhibition, individual serum II/12
[6] = target: IgE antibodies of the individual allergic patient serum II/3; experiment: EAST inhibition, individual serum II/3
[7] = allergic patient serum pool Bor 18/100
[8] = allergic patient serum pool We 6/97
[9] = individual allergic patient serum II/3
[10] = individual allergic patient serum II/12
[11] = individual allergic patient serum II/17

B1: rPhl p 5b point mutant PM1 (N32D, D49L, K50A) (protein)
chain: ADAGYAPATPAAAGAAAGKATTEEQKLIEDIDVGFKAAVAAAASVPAALAFKTFEAAFTSSSKAAAAKAPGLVPKLDAAYSVAYKAAVGATPEAKFDSFVASLTEALRVIAGALEVHAVKPVTEEPGMAKIPAGELQIIDKIDAAFKVAATAAATAPADDKFTVFEAAFNKAIKESTGGAYDTYKCIPSLEAAVKQAYAATVAAAPQVKYAVFEAALTKAITAMSEVQKVSQPATGAATVAAGAATTAAGAASGAATVAAGGYKV
- Incorporation of [3H]-thymidine into TCC CB 2 (stimulation index class) ([1]; T cell-reactive region A): +++ (>10 (+++))
- Incorporation of [3H]-thymidine into TCC CB 14 (stimulation index class) ([1]; T cell-reactive region A): +++ (>10 (+++))
- Incorporation of [3H]-thymidine into TCC JR 13 (stimulation index class) ([1]; T cell-reactive region A): +++ (>10 (+++))
- Incorporation of [3H]-thymidine into TCC JR 15 (stimulation index class) ([1]; T cell-reactive region A): ++ (5-10 (++))
- Incorporation of [3H]-thymidine into TCC DW8 (stimulation index class) ([1]; T cell-reactive region B): + (1-2 (+))
- Incorporation of [3H]-thymidine into TCC UZH2 (stimulation index class) ([1]; T cell-reactive region B): +++ (>10 (+++))
- Incorporation of [3H]-thymidine, stimulation index SI, 3rd exp. ([1]; T cell-reactive region C): 1.1
- Incorporation of [3H]-thymidine, stimulation index class (last column, no head) ([1]; T cell-reactive region C): − (<1 (−))
- IC50 [2]: 2.2 nM
- allergenic potency (Prel) at 25% inhibition (relative to native Phl p 5b) [2]: 0.336
- allergenic potency (Prel) at 50% inhibition (relative to native Phl p 5b) [2]: 0.119
- inhibition value (inhibitor concentration at 25% inhibition) [2]: 6.4e-10 mol/L
- Inhibition value 25% (concentration of the inhibitor at 25% inhibition) [3, 7]: 4.5e-10 mol/L
- IC50 [3, 7]: 12 nM
- Inhibition value 25% (concentration of the inhibitor at 25% inhibition) [3, 8]: 1.2e-09 mol/L
- IC50 [3, 8]: 120 nM
- Inhibition value 25% (concentration of the inhibitor at 25% inhibition) [3, 9]: 8.6e-10 mol/L
- IC50 [3, 9]: 19 nM
- Inhibition value 25% (concentration of the inhibitor at 25% inhibition) [3, 10]: 1.3e-09 mol/L
- IC50 [3, 10]: 83 nM
- Inhibition value 25% (concentration of the inhibitor at 25% inhibition) [3, 11]: 6.4e-10 mol/L
- IC50 [3, 11]: 2.2 nM
- Allergenic potency (Prel) 25% ([3]; individual serum II/3): 0.5950
- Allergenic potency (Prel) 25% ([3]; individual serum II/12): 0.391
- Allergenic potency (Prel) 25% ([3]; individual serum II/17): 0.336
- Allergenic potency (Prel) 25% ([3]; serum pool Bor 18/100): 0.739
- Allergenic potency (Prel) 25% ([3]; serum pool We 6/97): 0.415
- Allergenic potency (Prel) 50% ([3]; individual serum II/3): 0.3140
- Allergenic potency (Prel) 50% ([3]; individual serum II/12): 0.082
- Allergenic potency (Prel) 50% ([3]; individual serum II/17): 0.1190
- Allergenic potency (Prel) 50% ([3]; serum pool Bor 18/100): 0.3490
- Allergenic potency (Prel) 50% ([3]; serum pool We 6/97): 0.0510
- EAST inhibition curve / inhibitory effect (in words) [3]: exhibits this effect in the higher range to a somewhat greater degree
- Allergenicity from EAST inhibition curves (in words) [3]: either no reduction, or only a reduction which is for the most part slight
- Incorporation of [3H]-thymidine into TCL 1 Wöl (stimulation index class) ([4]; primary stimulator n Phl p 5): + (1-2 (+))
- Incorporation of [3H]-thymidine into TCL 3 Fre (stimulation index class) ([4]; primary stimulator n Phl p 5): + (1-2 (+))
- Incorporation of [3H]-thymidine into TCL 5 17.4 (stimulation index class) [4]: + (1-2 (+))
- Incorporation of [3H]-thymidine into TCL 6 Mah (stimulation index class) ([4]; primary stimulator r Phl p 5a, r Phl p 5b): ++ (5-10 (++))
- Incorporation of [3H]-thymidine into TCL 7 19.2 (stimulation index class) [4]: +++ (>10 (+++))
- Incorporation of [3H]-thymidine into TCL 8 20.1 (stimulation index class) [4]: +++ (>10 (+++))
- IC50 [5]: 83 nM
- allergenic potency (Prel) at 25% inhibition (relative to native Phl p 5b) [5]: 0.391
- allergenic potency (Prel) at 50% inhibition (relative to native Phl p 5b) [5]: 0.082
- inhibition value (inhibitor concentration at 25% inhibition) [5]: 1.3e-09 mol/L
- IC50 [6]: 19 nM
- allergenic potency (Prel) at 25% inhibition (relative to native Phl p 5b) [6]: 0.595
- allergenic potency (Prel) at 50% inhibition (relative to native Phl p 5b) [6]: 0.314
- inhibition value (inhibitor concentration at 25% inhibition) [6]: 8.6e-10 mol/L

B2: rPhl p 5b point mutant PM3 (A13C) (protein)
chain: ADAGYAPATPAACGAAAGKATTEEQKLIEDINVGFKAAVAAAASVPAADKFKTFEAAFTSSSKAAAAKAPGLVPKLDAAYSVAYKAAVGATPEAKFDSFVASLTEALRVIAGALEVHAVKPVTEEPGMAKIPAGELQIIDKIDAAFKVAATAAATAPADDKFTVFEAAFNKAIKESTGGAYDTYKCIPSLEAAVKQAYAATVAAAPQVKYAVFEAALTKAITAMSEVQKVSQPATGAATVAAGAATTAAGAASGAATVAAGGYKV
- Incorporation of [3H]-thymidine into TCC CB 2 (stimulation index class) ([1]; T cell-reactive region A): +++ (>10 (+++))
- Incorporation of [3H]-thymidine into TCC JR 13 (stimulation index class) ([1]; T cell-reactive region A): +++ (>10 (+++))
- Incorporation of [3H]-thymidine into TCC UZH2 (stimulation index class) ([1]; T cell-reactive region B): +++ (>10 (+++))
- Incorporation of [3H]-thymidine, stimulation index SI, 1st exp. ([1]; T cell-reactive region C): 7.4
- Incorporation of [3H]-thymidine, stimulation index SI, 2nd exp. ([1]; T cell-reactive region C): 5.9
- Incorporation of [3H]-thymidine, stimulation index SI, 3rd exp. ([1]; T cell-reactive region C): 4.5
- Incorporation of [3H]-thymidine, stimulation index class (last column, no head) ([1]; T cell-reactive region C): ++ (5-10 (++))
- IC50 [2]: 5.5 nM
- allergenic potency (Prel) at 25% inhibition (relative to native Phl p 5b) [2]: 0.855
- allergenic potency (Prel) at 50% inhibition (relative to native Phl p 5b) [2]: 0.468
- inhibition value (inhibitor concentration at 25% inhibition) [2]: 2.5e-10 mol/L
- Inhibition value 25% (concentration of the inhibitor at 25% inhibition) [3, 7]: 2e-10 mol/L
- IC50 [3, 7]: 4.8 nM
- Inhibition value 25% (concentration of the inhibitor at 25% inhibition) [3, 8]: 8.3e-10 mol/L
- IC50 [3, 8]: 30 nM
- Inhibition value 25% (concentration of the inhibitor at 25% inhibition) [3, 9]: 5.5e-10 mol/L
- IC50 [3, 9]: 15 nM
- Inhibition value 25% (concentration of the inhibitor at 25% inhibition) [3, 10]: 1.3e-09 mol/L
- IC50 [3, 10]: 91 nM
- Inhibition value 25% (concentration of the inhibitor at 25% inhibition) [3, 11]: 2.5e-10 mol/L
- IC50 [3, 11]: 5.5 nM
- Allergenic potency (Prel) 25% ([3]; individual serum II/3): 0.9220
- Allergenic potency (Prel) 25% ([3]; individual serum II/12): 0.389
- Allergenic potency (Prel) 25% ([3]; individual serum II/17): 0.855
- Allergenic potency (Prel) 25% ([3]; serum pool Bor 18/100): 1.641
- Allergenic potency (Prel) 25% ([3]; serum pool We 6/97): 0.611
- Allergenic potency (Prel) 50% ([3]; individual serum II/3): 0.3990
- Allergenic potency (Prel) 50% ([3]; individual serum II/12): 0.075
- Allergenic potency (Prel) 50% ([3]; individual serum II/17): 0.4680
- Allergenic potency (Prel) 50% ([3]; serum pool Bor 18/100): 0.8640
- Allergenic potency (Prel) 50% ([3]; serum pool We 6/97): 0.2030
- EAST inhibition curve / inhibitory effect (in words) [3]: binding curves which are similar to that obtained with natural Ph1 p 5b
- Allergenicity from EAST inhibition curves (in words) [3]: either no reduction, or only a reduction which is for the most part slight
- Incorporation of [3H]-thymidine into TCL 3 Fre (stimulation index class) ([4]; primary stimulator n Phl p 5): + (1-2 (+))
- Incorporation of [3H]-thymidine into TCL 4 Mer (stimulation index class) ([4]; primary stimulator n Phl p 5): + (1-2 (+))
- Incorporation of [3H]-thymidine into TCL 5 17.4 (stimulation index class) [4]: + (1-2 (+))
- Incorporation of [3H]-thymidine into TCL 7 19.2 (stimulation index class) [4]: +++ (>10 (+++))
- Incorporation of [3H]-thymidine into TCL 8 20.1 (stimulation index class) [4]: + (1-2 (+))
- IC50 [5]: 91 nM
- allergenic potency (Prel) at 25% inhibition (relative to native Phl p 5b) [5]: 0.389
- allergenic potency (Prel) at 50% inhibition (relative to native Phl p 5b) [5]: 0.075
- inhibition value (inhibitor concentration at 25% inhibition) [5]: 1.3e-09 mol/L
- IC50 [6]: 15 nM
- allergenic potency (Prel) at 25% inhibition (relative to native Phl p 5b) [6]: 0.922
- allergenic potency (Prel) at 50% inhibition (relative to native Phl p 5b) [6]: 0.399
- inhibition value (inhibitor concentration at 25% inhibition) [6]: 5.5e-10 mol/L
